In one data set the test system is CHD4 PHD1-2 (human). Nature of the data set: pull-down (GST), qPCR. The settings on record: Pull-down: 25 mM HEPES pH 7.4, 150 mM NaCl, 0.5 mM TCEP, 4 C overnight, 50 nM nucleosome; NMR at 0 and 100 mM NaCl (buffer not in material). (In general: Quantitative PCR measures a nucleic acid by following its amplification.)
In data set [1] the target is GST fusion of CHD4 PHD1-2 (aa 364-506) (human) (UniProt Q14839). Nature of the data set: pull-down; GST-PHD1 or GST-PHD1-2 pre-bound to glutathione magnetic agarose beads; 100 ul of 50 nM nucleosome, 4°C overnight; 25 mM HEPES pH 7.4, 150 mM NaCl, 0.5 mM TCEP; bound nucleosome quantified by qPCR of the 601 DNA, normalised to input.
Sequence of UniProt Q14839 (Q14839 364-506): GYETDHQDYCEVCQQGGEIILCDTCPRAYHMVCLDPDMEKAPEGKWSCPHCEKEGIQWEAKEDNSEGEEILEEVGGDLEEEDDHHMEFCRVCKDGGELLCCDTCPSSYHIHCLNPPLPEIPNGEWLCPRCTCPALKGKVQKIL

H3.3 G33R nucleosome, 601 DNA gave a binding signal (fold vs WT nucleosome) in the data set with CHD4 PHD1-2 (human) greater than 2.
“([H3.3G33R]) nucleosome core particle (from UniProt P84243 1-136; P62805 1-103; P0C0S8 1-130; P62807 1-126) (complex)” showed a fold increase of pull-down over WT nucleosome in data set [1] greater than 2 fold.

The values are drawn from paper PMC12802913.
